Measurements: paper PMC6160062, “Designing antibodies against LRRK2-targeted tau epitopes” (PLoS ONE, 2018)

Molecular target: T1, tau in human tauopathy brain tissue (neurofibrillary tangles) (Homo sapiens, UniProt P10636)
T1 construct: microtubule associated protein tau, human, endogenous in brain; also called NFT tau; tau pathology in AD, FTD and PSP cases; source: endogenous, formalin fixed paraffin embedded human brain tissue (hippocampal region; AD, FTD, PSP cases)
Test: immunostaining of cells or tissue; paraffin sections of mouse brain (rTg4510 and nontransgenic; 4.5, 6, 8.5, 10 months) or of human hippocampal tissue; citrate antigen retrieval; MHT2 overnight; ABC/DAB detection

T1 sequence (P10636 whole entry): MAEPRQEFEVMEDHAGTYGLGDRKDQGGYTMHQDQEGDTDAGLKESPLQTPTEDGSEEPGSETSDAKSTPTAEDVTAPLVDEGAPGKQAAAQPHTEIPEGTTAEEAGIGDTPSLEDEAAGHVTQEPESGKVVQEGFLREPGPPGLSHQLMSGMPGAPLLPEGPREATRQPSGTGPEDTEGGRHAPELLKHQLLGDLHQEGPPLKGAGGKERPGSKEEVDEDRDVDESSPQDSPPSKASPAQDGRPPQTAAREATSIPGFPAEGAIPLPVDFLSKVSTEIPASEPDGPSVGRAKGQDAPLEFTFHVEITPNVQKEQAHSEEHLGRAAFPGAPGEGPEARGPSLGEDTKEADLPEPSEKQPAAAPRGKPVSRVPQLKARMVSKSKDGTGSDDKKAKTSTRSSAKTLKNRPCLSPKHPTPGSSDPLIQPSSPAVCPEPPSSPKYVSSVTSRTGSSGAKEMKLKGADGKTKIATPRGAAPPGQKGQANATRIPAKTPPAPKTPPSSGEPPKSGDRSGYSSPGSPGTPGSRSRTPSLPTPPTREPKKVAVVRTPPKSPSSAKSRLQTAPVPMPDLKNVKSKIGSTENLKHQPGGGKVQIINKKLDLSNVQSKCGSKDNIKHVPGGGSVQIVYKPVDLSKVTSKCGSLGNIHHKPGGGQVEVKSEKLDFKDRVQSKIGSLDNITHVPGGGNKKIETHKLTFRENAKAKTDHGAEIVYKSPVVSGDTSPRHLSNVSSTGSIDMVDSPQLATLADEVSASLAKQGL

B1: MHT2 monoclonal antibody (antibody, V domains shown)
VH: EVQLQQSGAELVRPGALVKLSCKASGFNIKDYYMHWVKQRPEQGLEWIGWIDPENGNTIYDPKFQGKASITADTSSNTAYLQLSSLTSEDTAVYYCSSYYDYDYWG
VL: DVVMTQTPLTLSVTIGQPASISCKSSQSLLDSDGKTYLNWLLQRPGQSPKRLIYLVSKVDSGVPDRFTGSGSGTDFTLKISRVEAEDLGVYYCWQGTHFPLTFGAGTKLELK
notes: Isotype IgG1; For the BLI experiment only, the antibody was biotinylated with EZ-Link NHS-PEG4 and held on streptavidin sensors; also called antibody MHT2
B1: binds.
